One series has as its system E. coli cells. Put plainly: GC-MS of methylketones in spent media of E. coli cells expressing ShMKS1, ShMKS2 or ShMKS2 (D79A). In kind it is cell-based, Escherichia coli. Conditions: with or without acid and heat treatment. As to the method:
To test if expression of either ShMKS1 or ShMKS2 (without its transit peptide) in E. coli results in the formation of 3-ketoacids, we collected spent media of bacterial cells expressing each of them (by centrifuging out the cells at the end of the incubation period), heated the spent media at 75° C. for 30 min in the presence of 1 M sulfuric acid, extracted with hexane, then injected the hexane fraction in a GC-MS. […] On the other hand, the spent medium of E. coli cells expressing ShMKS2 contained 5.6±0.32 μg/μL of total methylketones, and the amount of methylketones increased […], to 40.7±2.1 μg/μL, after the spent medium was treated with acid and heat (FIG. 17).
The coding regions of ShMKS1 and ShMKS2 (minus the transit peptide-encoding region) were each amplified by PCR and inserted into the E. coli expression vector pEXP-TOPO-CT (Invitrogen). The expression vectors were introduced into E. coli BL21 Star (DE3) cells, and gene expression was induced by the addition of 0.5 mM IPTG after the culture optical density at 600 nm had reached 0.65. After induction with IPTG and growth at 18° C. overnight, the cells expressing ShMKS1 or ShMKS2 were centrifuged at 5000 rpm for 15 minutes, and 1-mL aliquots of the spent medium were placed in individual vials for further analysis. […]

The nature of series [1]: Treatment of spent medium of ShMKS2-expressing E. coli with purified ShMKS1. In kind it is biochemical. The conditions noted are these: 3 μg/mL final concentration, incubated 2 h prior to hexane extraction. As to the method: Moreover, the treatment with purified ShMKS1 seemed to favor an increase in 2-tridecanone over other methylketones (FIG. 18).
Aliquots (1 mL) of the spent medium of E. coli expressing ShMKS2, obtained by centrifuging the culture solution after the incubation time at 5,000 rpm for 15 min and collecting the solution without the cells, were treated in the following ways: 1. Incubated with 40 μl (3 μg) of purified MKS1 in phosphate buffer (12.5 mM NaH2PO4, 125 mM NaCl, 2 mM DTT, pH 6.8) for 2 hrs at 30° C. 3. Incubated at 75° C. for 30 min followed by 30 min at 30° C. 4. Incubated with 1 mL of 2M H2SO4 at 75° C. for 30 min followed by 30 min at 30° C. After the various treatments, 1 mL of hexane containing 5 ng/μL linalool as an internal standard was added and the resulting mixture was vortexed and centrifuged at 5000 rpm for 10 min. Two μL of the resulting extract were injected into the GC-MS for determination of methylketones. GC-MS and product analysis were performed as described by Ben-Israel et al, (2009) Multiple biochemical and morphological factors underlie the production of methylketones in tomato trichomes, Plant Physiology 151: 1952-1964.

Another series has as its system 3-ketomyristoyl-ACP. Put plainly: In vitro thioesterase activity assay. In kind it is biochemical. On the procedure:
To examine the potential thioesterase activity of ShMKS1 and ShMKS2 in vitro, we added 2.5 μg of each protein to a 500 μL solution of freshly prepared 3-ketomyristoyl-ACP. This protein-linked substrate was prepared using a sequential in vitro enzymatic system involving the addition of multiple starting materials and enzymes and the reaction allowed to proceed for 5 hr (see Examples, Materials, and Methods). Due to the highly unstable nature of 3-ketomyristoyl-ACP, this compound was not further purified but instead the solution in which it was synthesized was used as the “substrate solution” for qualitative in vitro thioesterase activity assays.
Aliquots of this substrate solution were incubated with buffer, ShMKS1, ShMKS2, or both ShMKS1 and ShMKS2 for 30 min at 23° C. […]
3-Ketomyristoyl-ACP was synthesized in a 500 μL reaction volume containing 1,3-bis(tris(hydroxymethyl)methylamino) propane (20 mM, pH 7.0), malonyl-CoA (0.2 mM), lauroyl-CoA (0.2 mM), ShACP (0.1 mM), EcFabD (10 μg) and MtFabH (10 μg). […] Hexane extracts were analyzed by GC-MS as described above. The values for heat-treated samples shown in FIG. 20 were corrected for loss of methylketones during the heating step, as determined by comparisons with standards.

B1: ShMKS1: methylketone synthase 1 from Solanum habrochaites glabratum (SEQ ID NO: 17); recombinant, 3-ketoacid decarboxylase (protein)
chain: MEKSMSPFVKKHFVLVHTAFHGAWCWYKIVALMRSSGHNVTALDLGASGINPKQALQIPNFSDYLSPLMEFMASLPANEKIILVGHALGGLAISKAMETFPEKISVAVFLSGLMPGPNIDATTVCTKAGSAVLGQLDNCVTYENGPTNPPTTLIAGPKFLATNVYHLSPIEDLALATALVRPLYLYLAEDISKEVVLSSKRYGSVKRVFIVATENDALKKEFLKLMIEKNPPDEVKEIEGSDHVTMMSKPQQLFTTLLSIANKYK
modifications: ShMKS1
notes: recombinant, 3-ketoacid decarboxylase
B1: in the series on E. coli cells, the “methylketones in spent medium” value is “no methylketones”. Besides, the “levels of extractable methylketones vs spent medium treated with phosphate buffer alone” value in series [1] is on record as “significantly higher”. In addition, in the series with 3-ketomyristoyl-ACP (2.5 μg protein, 30 min at 23° C., directly extracted with hexane), the “amount of 2-tridecanone vs buffer-incubated sample treated with acid and heat” value was “slightly higher, but not significantly so”. In addition, the “in vitro thioesterase activity” value with 3-ketomyristoyl-ACP (3-ketomyristoyl-ACP substrate solution) is reported as “little or no”.

The values above are taken from patent US20110289632A1, “METHYLKETONE SYNTHASE, PRODUCTION OF METHYLKETONES IN PLANTS AND BACTERIA” (The Regents of the University of Michigan, priority 2009, published 2011).
